Patent US20210255174

Test system: SNAPtide (FITC/DABCYL), List Biological Laboratories product #521

BoNT/A complex (intact BoNT/A toxin complex, Metabiologics)
Km of SNAPtide hydrolysis, bead-immobilized BoNT/A (bead based ALISSA): bead based ALISSA: typical Km=0.2 µM
Km of SNAPtide hydrolysis, free BoNT/A (non-bead based assay): non-bead based assay: typical Km=0.7 µM
